# Where no end group is shown, it is not given here.
# B1: OTOF CTERM E47 (peptide)
# peptide: CYSLPGYLAKKILGA
# modifications: not fully specified (residue 1); also: N-terminal Cys coupled to Sulfolink gel matrix (immobilised)
# notes: also called E47 peptide; exon 47 (E47) otoferlin C-terminal peptide
# B2: OTOF CTERM E48 (peptide)
# peptide: CYSLPGYMVKKLLGA
# modifications: not fully specified (residue 1); also: N-terminal Cys coupled to Sulfolink gel matrix (immobilised)
# notes: also called E48 peptide; exon 48 (E48) otoferlin C-terminal peptide
# Key:
# [1] = target: T1, HS9A_MOUSE, heat shock protein HSP-90 alpha (HSP 86) (mouse, UniProt P07901 2-733); assay: peptide affinity matrix pull-down from mouse brain extract, Coomassie-stained SDS-PAGE (FIG. 1A)
# T1 construct: Native protein captured from mouse brain extract; identified by mass spectrometry and western blot; also called p97; 97-kilodalton protein
# Protocol: FIG. 1A Coomassie stained gel, FIG. 1B Western analysis of an identical gel with antibody to beta-COP. MW=molecular weight markers, Total=13,200 rpm supernatant loaded onto column matrix. E47=sample eluted from OTOF CTERM E47 column matrix. BC1=672 BC1, E48=OTOF CTERM E48, CC1=670 CC1. Brain extracts were made in a Potter-Elvehjem Teflon glass homogenizer using 1 ml/100 mg tissue of TNGD (50 mM TRIS 7.5, 75 mM NaCl, 10 mM EGTA, 2 mM EDTA) plus protease inhibitor 10 ul/ml (Sigma P8340). Protein extracts were absorbed to four Sulfolink-peptide affinity matrices and washed four times with TNGD. The column matrix was transferred to PCR tubes and made 1× with SDS buffer (Pierce Cat. No. 39001) and heated at 95° C. for 5 minutes. Samples were separated on a 4-20% polyacrylamide gel. E47 peptide corresponds to otoferlin exon 47 C-terminal. E48 peptide corresponds to otoferlin exon 48 C-terminal. BC1 and CC1 peptides are specific controls for E47 and E48 respectively where a di-serine replaces di-lysine. Antibody to beta-COP (Ocogene cat # PC175) was used at a dilution of 1:1500.
# [2] = target: T2, recombinant human Hsp90α (Stressgen SPP-776, Lot No. B201401) (human, UniProt P07900 1-732); assay: peptide affinity column, elution with 600 mM NaCl, silver-stained SDS-PAGE (no eluted protein was detected from the E47 column)
# T2 construct: Bought recombinant protein; also called purified Hsp90α; purified human Hsp90α
# Protocol: The columns was preabsorbed with 100 μl of 10% BSA for 30 minutes at 4° C. and mixed by rotation. The columns were then washed five times with 0.4 ml of TNGD. Four hundred (400) ng of recombinant human Hsp90α (Stressgen SPP-776, Lot No. B201401) in 100 μl of TNGD was added to each column for 30 minutes at 4° C. and mixed by rotation. The unabsorbed protein was removed by centrifugation. The columns were washed five times with 0.4 ml of TNGD, then eluted with 100 μl TNGD+600 mM NaCl. Samples were analyzed on a 4-20% SDS-PAGE gel followed by silver staining using a BIORAD Silver Stain Plus kit (No. 161-0449) as show in FIG. 5. […] The amount of protein added and eluted was determined by scanning the silver stained gel using a Alpha Imager 2200 gel imaging system. Approximately 10% of the protein corresponding to Hsp90 molecular weight was eluted with 600 mM NaCl+TGND from the E48 column while no eluted protein was detected with the same elution conditions from the E47 column.
Binder,binding result [1],binding result [2]
B1,no binding,no binding
B2,binds,
